Test results from patent US20180016325.

Experiments:
[1] = target: MP-LAFG-PABC-(piperazinoBOR) LA-104 as antibody conjugate AAC-193
[2] = target: thioFAB 4497 MP-LAFGA-QSY7
[3] = target: thioFAB 4497 MP-LAFAA-QSY7
[4] = target: thioFAB S4497-MC-GGAFAGGG-(pipBOR)

B1: staphopain A (protein)
chain: YNEQYVNKLENFKIRETQGNNGWCAGYTMSALLNATYNTNKYHAEAVMRFLHPNLQGQQFQFTGLTPREMIYFEQTQGRSPQLLNRMTTYNEVDNLTKNNKGIAILGSRVESRNGMHAGHAMAVVGNAKLNNGQEVIIIWNPWDNGFMTQDAKNNVIPVSNGDHYQWYSSIYGY
[1]
  Percent cleavage pH 5: 100%
  Percent cleavage pH 7.2: 46%
  percent cleavage at pH 7.2: Staphopain A showed 100% cleavage at pH5 and 64% cleavage at pH 7.2

B2: staphopain B (protein)
chain: DQVQYENTLKNFKIREQQFDNSWCAGFSMAALLNATKNTDTYNAHDIMRTLYPEVSEQDLPNCATFPNQMIEYGKSQGRDIHYQEGVPSYNQVDQLTKDNVGIMILAQSVSQNPNDPHLGHALAVVGNAKINDQEKLIYWNPWDTELSIQDADSSLLHLSFNRDYNWYGSMIGY
[2]
  Percent cleavage pH 7.2: 100%
[3]
  Percent cleavage pH 7.2: 100%
[4]
  cleavage of the linker (LC-MS): Staphopain B was found to cleave the linker at the same site as the active protease purified from Wood46 supernatant
[1]
  Percent cleavage pH 5: 100%
  Percent cleavage pH 7.2: 100%
